“And” between values parts separate entries of the source, which are not always exact repeats. Equal entries are not always repeated.
Experiments:
[1] = Bioactivity of vancomycin released from hydrogel; details: throughout release from hydrogel
[2] = Animal modeling of vancomycin hydrogel DDS (subconjunctival injection); assay type: in vivo
[3] = Release of vancomycin from hydrogel; assay type: physicochemical; details: VAN encapsulated in hydrogel only
Excerpt: A third example is a DDS where only hydrogel is used to release vancomycin (VAN, antibiotics, 1450 Da). VAN was encapsulated in the hydrogel as a short-term release DDS (e.g., for use as a prophylactic treatment before ocular surgery).

retina [4] = tested on: retina; parameters: species or system Long-Evans rats; details: rat, in vivo
Procedure: (§1) All animal procedures were in accordance with protocols approved by the Institutional Animal Care and Use Committee at the Illinois Institute of Technology, and with the principles embodied in the statement on the use of animals in ophthalmic and vision research adopted by the Association for Research in Vision and Ophthalmology. Long-Evans male rats (1-3 months, 300-350 g) were purchased from Harlan Laboratories (Indianapolis, IN, USA). Animals were anesthetized using 80 mg/kg of ketamine hydrochloride (Fort Dodge Animal Health, Fort Dodge, Iowa, USA) and 10 mg/kg xylazine (AnaSed® Injection, Akorn, Inc., Decatur, IL, USA) via intraperitoneal (IP) injection. Proparacaine drops (Bausch and Lomb, Rochester, NY, USA) were used to anesthetize the corneas throughout the procedure and pupils were dilated using phenylephrine (Bausch and Lomb) and atropine drops (Bausch and Lomb). Heart rate and blood oxygen saturation were monitored with a PulseOximeter (8500AV; Nonin Medical Inc., Plymouth, MN, USA). Animals were placed on a custom-built heated stage and monitored to maintain a core body temperature of 37° C.
Animals were separated into six groups to determine the ability of the DDS of this invention to treat CNV. For analysis purposes, lesions were considered independent within each treatment group and each group contained two rats for a total of four eyes and up to 24 lesions per treatment group. […] All IVT injections were 5 μL and performed immediately after CNV induction.
The corneal electroretinogram (ERG) is a non-invasive measurement that represents the overall electrical activity of the retina in response to a stimulus flash. It is routinely used to assess retinal cellular activity and in toxicology studies. Each component of the ERG can be used to assess different retinal cell types and any alterations in the function of the retina due to the DDS would appear as changes in amplitude or sensitivity of various ERG components. Under scotopic conditions, the ERG has two important components: the a-wave and b-wave. The rising edge of the negative a-wave is generated by the photoreceptors in the outer retina; the positive b-wave is generated primarily by the bipolar cells and/or Müller cells. Another component of the ERG is the c-wave, which originates in the RPE and can be used to assess the functional integrity of the photoreceptors, the RPE cells, and the interactions between them; however, for the purposes of this research, the c-wave was not recorded or analyzed.
Under dim red light prior to and at each time point after CNV induction and DDS injection, ERG experiments were performed under scotopic conditions, with animals dark-adapted overnight prior to the experiment. Electroretinograms, in response to the full-field Ganzfeld stimulation, were recorded by a gold wire loop placed on the cornea. The reference and ground electrodes were 30 G platinum subdermal needle electrodes ([…]™ F-E2, Grass Products, Natus Neurology, Warwick, RI, USA) inserted into the cheek and nape of the neck, respectively. A-wave and b-wave intensity responses were recorded by presenting single flashes of increasing intensity (5×10^−4 to 305.7 sc cd·s·m^−2) and allowing the eye to dark adapt for 1 min after each flash. The intensity-response values for the a-wave and b-wave were fit with the Naka-Rushton equation, to determine a half-saturation intensity of the responses and maximal response.
The parameter values obtained from the Naka-Rushton analyses and IOP measurements were compared using the paired t-test verses control. […] Unless otherwise noted, significance represents p<0.05. All values are reported as sample mean±standard error of the mean.

[5] = In vitro release of anti-VEGF from microspheres and microsphere-hydrogel DDS (PBS, 37 C); assay type: physicochemical; details: for Initial Burst Percent: drug released within first 24 hours; for extension of release by hydrogel: microspheres in hydrogel versus alone; for reduction of initial burst by hydrogel: microspheres in hydrogel versus microspheres alone; for steady release rate: Days 7-196; for duration of release: microspheres suspended in hydrogel
Procedure: (§2) Labeled proteins were lyophilized, weighed, and dissolved in 1× phosphate-buffered saline (PBS, pH 7.4) to create stock solutions of 10 mg/mL for each protein, which were stored at −80° C.
Release of anti-VEGF agents was determined using a separation method also described in Osswald C. R. et al. Briefly, 15 mg of microspheres and 1 mL of the DDS (15 mg microspheres in 1 mL hydrogel) were suspended in 1.5 mL of 1×PBS to ensure detectable levels of anti-VEGF concentration throughout release. Release profiles were conducted at 37° C. under mild agitation and at predetermined intervals, 1 mL of supernatant was removed after a brief centrifugation and replaced with an equal volume of fresh buffer. Supernatants were read using a gamma counter (Packard). Cumulative release was calculated as a percent of encapsulated drug and was considered complete when the microspheres had completely degraded based on visual inspection. The IB was defined as drug released within the first 24 hours.

laser-induced CNV = assay: Laser-induced CNV rat model, lesion area from late-phase FA images (multi-Otsu thresholding); assay type: in vivo, Long-Evans rats; details: 5 μL IVT immediately after CNV induction, Weeks 1-12
Procedure: as §1, with “Proparacaine drops (Bausch and Lomb, Rochester, NY, USA) were used to anesthetize the corneas throughout the procedure and pupils were dilated using phenylephrine (Bausch and Lomb) and atropine drops (Bausch and Lomb).” left out, “C. […]” for “C.”
A confocal scanning laser ophthalmoscope (cSLO) system (Heidelberg Retina Angiograph (HRA), Heidelberg Engineering, Heidelberg, Germany) was used to image the retina. FA still images were captured at 1-2 min, 10 min and 20 min after IP injection of 0.5 mL of 20% fluorescein dye (Sigma Aldrich, St. Louis, MO, USA) and were used for quantification of CNV lesion areas. […]
CNV lesion areas were quantified using late-phase FA images. […]

[6] = Encapsulation efficiency of iodine-125 labelled anti-VEGF by gamma counter; assay type: physicochemical
Procedure: as §2
For each anti-VEGF agent, encapsulation efficiency (EE) was determined from the radioactivity measured using a gamma counter (Cobra-II Auto-Gamma, Packard Instrument Co., Meriden, CT) before and after microsphere preparation. EE was defined as the percent-drug within the microspheres relative to the theoretical loading amount.

[7] = In vitro single and dual release of DEX nanoparticles and AFL microspheres from hydrogel DDS (Example 3); assay type: physicochemical; details: first 14 days
Procedure: The DDS for single release consisted of 20 mg of DEX nanoparticles (DEX-np) suspended within a biodegradable N-isopropylacrylamide/poly(ethylene glycol)-co-(L-lactic acid) diacrylate/(NIPAAm/PEG-PLLA-DA) thermoresponsive hydrogel. The dual release consisted of 20 mg of DEX-np and 20 mg of AFL microspheres (AFL-ms) suspended within the hydrogel. DEX release in vitro, with and without AFL-ms, was quantified using NanoDrop™ OneC. Iodine-125 radiolabeled AFL was used to measure encapsulation efficiency into the hydrogel and in vitro release. The initial burst was calculated by quantifying total drug release in the first 24 hours.

bovine retina = details: directly after exposure to 0.1 mg/mL; cited from earlier work
[8] = Microsphere diameter by light microscopy and ImageJ; assay type: physicochemical; details: drug-loaded microspheres, Alone
Excerpt: To measure microsphere diameter, microspheres were fabricated as described above with non-radiolabeled drug. A sample was suspended in ddH2O and imaged with a microscope (×20 objective, Carl Zeiss, Germany).

retina [9] = details: vitreal concentration 6.67-10 mg/mL, 24 hr or 7 days after treatment; cited from earlier work
[10] = tested on: corneal neovascularization; details: cited from earlier work
mouse VEGF-A = details: cited from earlier work
Chain of mouse VEGF-A (Q00731 205-317 limits assumed): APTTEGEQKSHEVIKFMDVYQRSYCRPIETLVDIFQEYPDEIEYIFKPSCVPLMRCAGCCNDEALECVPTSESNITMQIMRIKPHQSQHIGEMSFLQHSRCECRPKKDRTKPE

CNV = details: intravitreal, out to 28 days, doses above and below clinical dose; cited from earlier work
[11] = tested on: inflammation-induced angiogenesis in the cornea; details: systemic or topical application; cited from earlier work
[12] = in vivo; cited from earlier work
[13] = cited from earlier work

With `CN[C@H](CC(C)C)C(=O)N[C@H]1C(=O)N[C@@H](CC(N)=O)C(=O)N[C@H]2C(=O)N[C@H]3C(=O)N[C@H](C(=O)N[C@H](C(=O)O)c4cc(O)cc(O)c4-c4cc3ccc4O)[C@H](O)c3ccc(c(Cl)c3)Oc3cc2cc(c3O[C@@H]2O[C@H](CO)[C@@H](O)[C@H](O)[C@H]2O[C@H]2C[C@](C)(N)[C@H](O)[C@H](C)O2)Oc2ccc(cc2Cl)[C@H]1O` [VAN, vancomycin] the bioactivity [1] was “bioactivity was maintained throughout the release”, the treatment efficacy [2] was “showed treatment efficacy” and the “duration of controlled release” value [3] was “over 20 days”.

In the case of aflibercept, the “a-wave half-saturation intensity versus control” value (retina [4]) is reported as “No significant difference”, the “half-maximal a- or b-wave response (half-saturation intensity)” value (retina [4]) is reported as “No significant difference” and the “maximal a-wave response post-treatment, lower than control” value (retina [4]) is reported as roughly 40%. The “maximal a-wave response, Control versus Week 1-Week 12” value (retina [4]) was “significant difference”, the “rate of release from the DDS, times less than that of ranibizumab” value ([5]; microsphere-hydrogel DDS) was 2.3 × and the “Initial Burst Percent” value ([5]; microspheres Alone) was 83.3 ± 2.1%. For the same molecule, the “extension of release by hydrogel” value [5] was 27.2%, the “reduction of initial burst by hydrogel” value [5] was 76% and the steady release rate ([5]; microspheres in hydrogel) was 0.065 µg/day. The “Initial Burst Percent” value ([5]; microspheres in hydrogel) was 20.1 ± 0.8%, the duration of release [5] was 196 days and ~200 days and the “encapsulated drug remaining entrapped in hydrogel after complete degradation of microspheres” value ([5]; non-degradable hydrogel, end of release) was 32.7±1.1%. The “CNV lesion area compared to non-treated animals” value (laser-induced CNV) was “significantly smaller CNV lesions compared to non-treated animals at Week 4 and Week 12”, the “Encapsulation Efficiency Percent” value ([6]; microspheres Alone) was 44.8 ± 2.0% and the “Encapsulation Efficiency Percent” value ([6]; microspheres in hydrogel) was 44.6 ± 1.4%. The “release rates in the presence of DEX-np” value [7] was “increased release rates”, the “decrease in maximal scotopic b-wave response” value (bovine retina) was 43.1% and the Diameter [8] was 8.0 ± 0.3 μm. The ERG parameters (retina [9]) was “did not alter any ERG parameters”.

In the case of bevacizumab, the corneal angiogenesis ([10]; sub-conjunctival injection) is given as “can significantly inhibit corneal angiogenesis”, the corneal neovascularization ([10]; topical) is given as “limited corneal neovascularization” and the “binding to mouse VEGF-A” value (mouse VEGF-A) is given as “binds to mouse VEGF-A”. The “therapeutic effect on CNV” value (CNV) was “no therapeutic effect was observed” and the “inhibition of corneal angiogenesis” value [11] was “significantly inhibited inflammation-induced angiogenesis”.

With ranibizumab the “a-wave parameters (maximal response, half-saturation intensity) versus control” value (retina [4]) was “no significant differences”, the “b-wave parameters versus control” value (retina [4]) was “no significant differences” and the “Initial Burst Percent” value ([5]; microspheres Alone) was 50.3 ± 2.1%. The “extension of release by hydrogel” value [5] was 27.2%, the “reduction of initial burst by hydrogel” value [5] was 58% and the steady release rate ([5]; microspheres in hydrogel) was 0.153 µg/day. For the same molecule, the “Initial Burst Percent” value ([5]; microspheres in hydrogel) was 21.0 ± 2.0%, the duration of release [5] was 196 days and ~200 days and the “half-life t½” value [12] was 220 h. For the same molecule, the “therapeutic effect on CNV” value (CNV) was “no therapeutic effect was observed”, the “CNV lesion area compared to non-treated animals” value (laser-induced CNV) was “only had a significant decrease in lesion area at Week 12” and the “Encapsulation Efficiency Percent” value ([6]; microspheres Alone) was 91.3 ± 2.5%. It also gave a Diameter [8] of 7.5 ± 0.4 μm.

B1: ovalbumin (protein, UniProt P01012 2-386, looked up)
Ovalbumin: GSIGAASMEFCFDVFKELKVHHANENIFYCPIAIMSALAMVYLGAKDSTRTQINKVVRFDKLPGFGDSIEAQCGTSVNVHSSLRDILNQITKPNDVYSFSLASRLYAEERYPILPEYLQCVKELYRGGLEPINFQTAADQARELINSWVESQTNGIIRNVLQPSSVDSQTAMVLVNAIVFKGLWEKAFKDEDTQAMPFRVTEQESKPVQMMYQIGLFRVASMASEKMKILELPFASGTMSMLVLLPDEVSGLEQLESIINFEKLTEWTSSNVMEERKIKVYLPRMKMEEKYNLTSVLMAMGITDVFSSSANLSGISSAESLKISQAVHAAHAEINEAGREVVGSAEAGVDAASVSEEFRADHPFLFCIKHIATNAVLFFGRCVSP
notes: model protein (45 kDa) used in initial development of the DDS
For B1, the “duration of controlled and extended release” value ([13]; microsphere-hydrogel DDS) is listed as “approximately 200 days”, the “extension of release compared to microspheres alone” value ([13]; microspheres within hydrogel) is listed as roughly 30% and the “residual entrapment in hydrogel” value ([13]; prior study) is listed as 8.01±0.76%.

Source: US12599570B2, “Biodegradable extended release microsphere-hydrogel ocular drug delivery system and method” (priority 2015, dated 2026)
